B1: TPR t1 (parent)
chain: GACCAAUCUGCCCUCAGAGCUCGAGAACAUCUUCGGAUGCAGAGGAGGCAGGCUUCGGUGGCGCGAUAGCGCCAACGUCCUCAACCUCCAAUGCAUCCCACCACAUGAUGAUGCCUGAAGAGCCUUGGUUUUUUG

The variants in this series derive from B1. As to the kind of experiment: polymerase ribozyme fitness, log enrichment relative to wild type (log ratio); higher = more active; in vitro selection for triplet polymerase activity. In outline:
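One round of in vitro selection, in triplicate, was applied to PCR-built, transcribed mutant libraries of each subunit of a heterodimeric triplet polymerase ribozyme. The steps were annealing with a biotinylated primer, partner subunit and triplets, incubation frozen at −7 °C, gel excision of extended constructs, streptavidin-bead capture and RT-PCR. Fitness is the logarithm, base 2, of genotype enrichment over wild-type enrichment from inverse-variance-weighted replicate averages of Illumina-sequenced inputs and outputs, keeping genotypes with ≥10 input reads and ≥1 read per output.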
For the variant GACCAAUCUGCCCUCAGAGCUCGAGAACAUCUUCGGAUGCAGAGGAGACAGGCUUCGGUGGCGCGAUAGCGGCAACAAACUCAACCUCCAAUGCAUCCCACCACAUGAUGAUGCCUGAAAAGCCUUGGUAUUUUG, the “polymerase ribozyme fitness (log ratio)” value was -2.79.
GACCAAUCUGCCCUCAGAGCUCGAGAACAUCUUCGGAUGCAGAGGAGACAGGCUUCGGUGGCGCGAUAGCGUCAACGUCCUCAACCUCCAAUGCAUCCCAGCACAUGAUGAUGCCUGAAGAGCCUUGGUUUUAUG: the “polymerase ribozyme fitness (log ratio)” value is -2.79.
Under GACCAAUCUGCCCUCAGAGCUCGAGAACAUCUUCGGAUGCAGAGGAGACAGGCUUCGGUGGCGCGAUAGCGCCAACGUCGUCAACCUCCAAUGCCUCCCACCACAUGAGGAUGCCUGAAGAGCCUUGGUUUUUUG stands -7.79; under GACCAAUCUGCCCUCAGAGCUCGAGAACAUCUUCGGAUGCAGAGGAGACAGGCUUCGGUGGCGCGAUAGCGCCAACGUACUCAACCUCCAAUGCAUUCCACCACAUGAUGAUGCCUGAAGAGCCUUGGUUUUUUG, -2.68.
For GACCAAUCUGCCCUCAGAGCUCGAGAACAUCUUCGGAUGCAGAGGAGACAGGCUUCGGUGGAGCGAUAGCGCCAACGUCCUCAACCUCCAAUGCAACCCACCACAUGAUGAUGCCUGAAGAGCCUUGGUUUUUUG, the “polymerase ribozyme fitness (log ratio)” value was -2.62.
Consider GACCAAUCUGCCCUCAGAGCUCGAGAACAUCUUCGGAUGCAGAGGAGACAGGCUUCGGUGGCGCGAUAGCGCCAACGUCCUCAACGUCCAAUGCAUCCCACCACAUGAUGAUGCCUGCAGAGCCUUGGUUUUUUG, for which the “polymerase ribozyme fitness (log ratio)” value is -3.12.
Under GACCAAUCUGCCCUCAGAGCUCGAGAACAUCUUCGGAUGCAGAGGAGACAGGCUUCGGUGGCGCGAUAGCGCCAACGUCCUCAACCUCCAAUGCAUACCACCACAUGAUGACGCCUGAAGAGCCUUGGUUUUUUG stands -2.48; under GACCAAUCUGCCCUCAGAGCUCGAGAACAUCUUCGGAUGCAGAGGAGACAGGCUUCGGUGGCGCGAUAGCGCCAACGUUCUCAACCUCCAAGGCAUCCCACCACAUGAUGAUGCCCGAACAGCCUUGGUUUUUUG, -5.27.
In the case of GACCAAUCUGCCCUCAGAGCUCGAGAACAUCUUCGGAUGCAGAGGAGACAGGCUUCGGUGGGGCGAUAGCGCCAACGUCCUCAACCUCCAAUGCAUCCCACCACAUGAUGAUGCCUGAAGAGCCUUGGUUUUUUG, the “polymerase ribozyme fitness (log ratio)” value is -2.29.
In the case of GACCAAUCUGCCCUCAGAGCUCGAGAACAUCUUCGGAUGCAGAGGAGACAGGCUUCGGUGGCGCGAUAGCGCCAACGUCCUCAACCUACAAUGCAUCCCACCACAUGAUGAUUCCUGAAAAGCCUUGGUUUUUUG, the “polymerase ribozyme fitness (log ratio)” value was -4.63.
Under GACCAAUCUGCCCUCAGAGCUCGAGAACAUCUUCGGAUGCAGAGGAGACAGGCUUCGGUGGCGGGAUAGCGCCAACGUCCACAACCUCAAAUGCAUCCCACCACAUGAUGAUGCCUGAAGAGCCUUGGUUUUUUG stands -7.34.
Under GACCAAUCUGCCCUCAGAGCUCGAGAACAUCUUCGGAUGCAGAGGAGACAGGCUUCGGUGGCGUGAUAGCGCCAACGUCCUCAACCUCCAAUGCUUCCCACCACAUGAUCAUGCAUGAAGAGCCUUGGUUUUUUG stands -5.72.
For the variant GACCAAUCUGCCCUCAGAGCUCGAGAACAUCUUCGGAUGCAGAGGAGACAGGCUUCGGUGGCGCGAUAGCGGCAACGUCCUCAACCUCCAAUGCAUCCCACCACAUGAUGAUGCCUGAAGAGCUUUGGUUUUUUG, the “polymerase ribozyme fitness (log ratio)” value came to 0.723.
Take GACCAAUCUGCCCUCAGAGCUCGAGAACAUCUUCGGAUGCAGAGGAGACAGGCUUCGGUGGCGCGAUAGUUCCAACGUCCUCAACCUCCAAUGCAUCCCACCACAUGAUGAUGCCUGAAGAGCCUUGGUUUUUUG: the “polymerase ribozyme fitness (log ratio)” value is -0.828.
GACCAAUCUGCCCUCAGAGCUCGAGAACAUCUUCGGAUGCAGAGGAGACAGGCUUCGGUGGCGCGAUAGCGCCAACGUCCUCAAGCUCCAAUGCAUCCCACCACAUGAUGAUGCUUGAAGAGCCUUGGUUUUUUG: the “polymerase ribozyme fitness (log ratio)” value was -2.75.
For GACCAAUCUGCCCUCAGAGCUCGAGAACAUCUUCGGAUGCAGAGGAGACAGGCUUCGGUGGCGCGAUAGCGCCAACGUCCUCAACCUCGAAUGCGUCCCACCACAUGAUGAUGCCUGAAGAGCCUUGGUUUUUUG, the “polymerase ribozyme fitness (log ratio)” value was -3.06.
GACCAAUCUGCCCUCAGAGCUCGAGAACAUCUUCGGAUGCAGAGGAGACAGGCUUCGGUGGCGCGAUAGCGCCAACGUCCUCAACCUUCAAUGCAUCCCACCACAUGAUGAUGCCUGAAGAGCCUUGGUUUUUUG: the “polymerase ribozyme fitness (log ratio)” value was -0.667.
Consider GACCAAUCUGCCCUCAGAGCUCGAGAACAUCUUCGGAUGCAGAGGAGACAGGCUUCGGUGGCGCGAUAGCGCUAACGUCCUUAACCUCCAAUUCAUCCCACCACAUGAUGAUGCCUGAAGAGCCUUGGUUUUUUG, for which the “polymerase ribozyme fitness (log ratio)” value is -1.54.
Regarding GACCAAUCUGCCCUCAGAGCUCGAGAACAUCUUCGGAUGCAGAGGAGACAGGCUUCGGUGGCGCGAUAGCGUCAACGUCCUCAACCUCCAAUGCAUCCCACCACAUGAUGAUGCCUGAUGAGCCUUGGUUUUUUG, the “polymerase ribozyme fitness (log ratio)” value was -0.826.
GACCAAUCUGCCCUCAGAGCUCGAGAACAUCUUCGGAUGCAGAGGAGACAGGCUUCGGUGGCGCGAUAGCGUCAACCUCCUGAACCUCCACUGCAUCCCACCACAUGAUCAUGCCUGAAGAGCCUUCGUUUUUUG: the “polymerase ribozyme fitness (log ratio)” value is -6.25.
As to GACCAAUCUGCCCUCAGAGCUCGAGAACAUCUUCGGAUGCAGAGGAGACAGGCUUCGGUGGCGCGAUAGCGCCAACGUCCUCAACCUCCAAUGCAUACCACCACAUGAUGAUGCCUGAAGAGCCUUGGUUUUUUG, the “polymerase ribozyme fitness (log ratio)” value is -5.22.

The values above are taken from the RNAGym collection of RNA variant scans (doi:10.1073/pnas.2313332121).
